{
  "source": "patent US20150322137A1",
  "key": {"[1]": {"target": "F protein of human metapneumovirus strain JPS03-180 (type A1), on infectious virus (human metapneumovirus, strain JPS03-180 (type A1))", "assay": "cell-based or functional assay"}, "[2]": {"target": "F protein of human metapneumovirus strain JPS05-21 (type B2), on infectious virus (human metapneumovirus, strain JPS05-21 (type B2))", "assay": "cell-based or functional assay"}, "[3]": {"target": "F protein of human metapneumovirus strain JPS03-178 (type A2), on infectious virus (human metapneumovirus, strain JPS03-178 (type A2))", "assay": "cell-based or functional assay"}, "[4]": {"target": "F protein of human metapneumovirus strain JPS02-76 (type B1), on infectious virus (human metapneumovirus, strain JPS02-76 (type B1)) (UniProt Q6WB98)", "assay": "cell-based or functional assay"}, "[5]": {"target": "FP-TM(-)-His, His-Tag-added hMPV (JPS02-76) FP lacking the transmembrane region (amino acid residues 491 to 539 of FP) (human metapneumovirus, strain JPS02-76 (type B1)) (UniProt Q6WB98)"}, "[6]": {"target": "FP-TM(-)-His, His-Tag-added hMPV (JPS02-76) FP lacking the transmembrane region (amino acid residues 491 to 539 of FP) (human metapneumovirus, strain JPS02-76 (type B1)) (UniProt Q6WB98)", "assay": "SPR, Biacore T-200; antibody captured by anti-human IgG, FP-TM(-)-His as analyte"}},
  "note": "Where two headings read alike, the source gives them in different places.",
  "data": [
    {"substance": "mouse anti-hMPV antibody mAb338", "values": [
      {"measurement": "IC50, neutralizing activity (hMPV infection of LLC-MK2 cells; GraphPad Prism 6)", "setting": "[1]", "value": 0.125, "unit": "µg/mL"},
      {"measurement": "IC60, neutralizing activity (hMPV infection of LLC-MK2 cells; GraphPad Prism 6)", "setting": "[1]", "value": 0.16, "unit": "µg/mL"},
      {"measurement": "IC90, neutralizing activity (hMPV infection of LLC-MK2 cells; GraphPad Prism 6)", "setting": "[1]", "value": 0.498, "unit": "µg/mL"},
      {"measurement": "IC50, neutralizing activity (hMPV infection of LLC-MK2 cells; GraphPad Prism 6)", "setting": "[2]", "value": 0.221, "unit": "µg/mL"},
      {"measurement": "IC60, neutralizing activity (hMPV infection of LLC-MK2 cells; GraphPad Prism 6)", "setting": "[2]", "value": 0.261, "unit": "µg/mL"},
      {"measurement": "IC90, neutralizing activity (hMPV infection of LLC-MK2 cells; GraphPad Prism 6)", "setting": "[2]", "value": 0.547, "unit": "µg/mL"},
      {"measurement": "IC50, neutralizing activity (hMPV infection of LLC-MK2 cells; GraphPad Prism 6)", "setting": "[3]", "value": 0.18, "unit": "µg/mL"},
      {"measurement": "IC60, neutralizing activity (hMPV infection of LLC-MK2 cells; GraphPad Prism 6)", "setting": "[3]", "value": 0.239, "unit": "µg/mL"},
      {"measurement": "IC90, neutralizing activity (hMPV infection of LLC-MK2 cells; GraphPad Prism 6)", "setting": "[3]", "value": 0.856, "unit": "µg/mL"},
      {"measurement": "IC50, cell-to-cell spread inhibitory activity (LLC-MK2 cells stably expressing TMPRSS2)", "setting": "[4]", "value": 0.0215, "unit": "µg/mL"},
      {"measurement": "IC50, neutralizing activity (hMPV infection of LLC-MK2 cells; GraphPad Prism 6)", "setting": "[4]", "value": 0.281, "unit": "µg/mL"},
      {"measurement": "IC60, neutralizing activity (hMPV infection of LLC-MK2 cells; GraphPad Prism 6)", "setting": "[4]", "value": 0.338, "unit": "µg/mL"},
      {"measurement": "IC90, cell-to-cell spread inhibitory activity (LLC-MK2 cells stably expressing TMPRSS2)", "setting": "[4]", "value": 0.0938, "unit": "µg/mL"},
      {"measurement": "IC90, neutralizing activity (hMPV infection of LLC-MK2 cells; GraphPad Prism 6)", "setting": "[4]", "value": 0.772, "unit": "µg/mL"},
      {"measurement": "Kd", "setting": "[5]", "value": "< 10", "unit": "nM"},
      {"measurement": "Kd", "setting": "[6]", "value": 0.531, "unit": "nM"},
      {"measurement": "koff", "setting": "[6]", "value": 0.000228, "unit": "s⁻¹"},
      {"measurement": "kon", "setting": "[6]", "value": 434000, "unit": "M⁻¹ s⁻¹"}
    ]}
  ]
}
